The source of these data is paper PMC8125234, “Cardiolipin Stabilizes and Increases Catalytic Efficiency of Carnitine Palmitoyltransferase II and Its Variants S113L, P50H, and Y479F” (International Journal of Molecular Sciences, 2021).

The test system of one data set is CPT II WT. Further details: method as in PMID 26477380. The settings on record: cited from earlier work.
The subject of a further data set is CPT II S113L. On the set-up: method as in PMID 27123472. The settings on record: in vitro; cited from earlier work.
Data set [1] can be described thus: Thermosensitivity of enzyme activity of recombinant CPT II enzymes (activity half-life after incubation). The format is physicochemical. The following applies: 30 °C; 1 mg/mL enzyme. The protocol: To evaluate the enzyme behavior under different temperature conditions that are relevant under physiological conditions, we chose 30 (cold), 37 (normal), 40 (moderate fever) and 42 °C (high fever) for the experiments. The enzyme variants were expressed recombinantly in E. coli, carried a N-terminal histidine-tag and were purified by standard chromatography in the presence of a detergent (for experimental details, see Section 4.1 and Section 4.2). The impact of temperature was investigated by incubating purified CPT II variants at appropriate temperatures and determining their enzymatic activity after defined incubation periods. The enzyme assay was based on an adaptation of Rufer et al. for the transfer reaction of the palmitic acid from palmitoyl-CoA to L-carnitine (see Section 4.3).
Before activity measurements, the storage buffer of the enzymes was replaced with assay buffer (50 mM KH2PO4, 120 mM KCl, 1 mM EDTA-Na4) using vivaspin turbo 4 tubes (Satorius Stedim biotech GmbH, Göttingen, Germany) at 4 °C. […] After that, the protein concentration was determined using bicinchoninic acid (BCA) protein assay kit (Thermo Fisher Scientific GmbH, Berlin, Germany). […] The reverse reaction of CPT II was detected with the enzyme activity assay. […] The released CoA was then detected by the reaction of the free thiol group with DTNB, forming 5-mercapto-(2-nitrobenzoic acid). […]

The nature of data set [2]: Onset of aggregation by scattered light back reflection during heating ramp. The data set is classed as physicochemical. The following applies: assay buffer; heating ramp 15 °C to 80 °C. The protocol: Supplementary materials can be found at https://www.mdpi.com/article/10.3390/ijms22094831/s1, Figure S1: Scattered light back reflection as measure for aggregation during the heating ramp from 15 °C to 80 °C of CPT II WT (black) and the variants P50H (red), S113L (blue) and Y479F (green) in assay buffer (magenta). The light scattering data were obtained simultaneously with nanoDSF data using the back reflection technology in a Prometheus NT.48 device. The unfolding of proteins leads to display of hydrophobic regions of the protein on the surface, which is followed by hydrophobic interaction of the protein molecules resulting in aggregation events. These aggregates are then detected via light scattering. […] The data allow the detection of onset of aggregation (Tagg) which differs clearly among the variants. The Tagg for WT is 38 °C, Y479F is 37 °C, S113L is 35 °C and P50H is 32 °C. […] Figure S2: The first derivatives of the transition curves of WT and the variants resulting from the ratio 350/330 nm were plotted against the temperature. The black, red, blue and green solid lines show the curves of WT and variants P50H, S113L and Y479F measured in assay buffer, respectively. The black, red, blue and green dashed lines show the maxima of the values of the first derivatives of the ratio 350 nm/330 nm of WT and variants P50H, S113L and Y479F, respectively. Figure S3: The effect of amino acid exchange in absence and presence of n-octyl-β-d-glucopyranoside (β-OG) on the stability of CPT II (1 mg/mL) assessed by nanoDSF. The TM of WT (37 °C) in buffer was used as reference value (ΔTM = 0 °C) to determine the ΔTM for the variants and the ΔTM for WT and variants in presence of β- OG. Error bars are SD derived from three independent experiments. Table S1. Comparison of the mean values of the half-lives (t1/2) of CPT II WT and the variants at 30 °C with the half-lives at 37, 40 or 42 °C. The differences of the half-lives for each CPT II enzyme between 37 and 40 or 42 °C as well as 40 and 42 °C are not significant. Number of experiments for each variant (n ≥ 3). Table S2. Comparison of the mean values of the half-lives (t1/2) between CPT II WT and the variants Y479F, S113L and P50H at 30, 37, 40 or 42 °C. n ≥ 3. Table S3. […] Comparison of the ∆TM-values of CPT II WT and the variants Y479F, S113L and P50H in buffer or in presence of 0.25 mM cardiolipin or 1% n-octyl-β-d-glucopyranoside (β-OG) assessed by nanoDSF (n ≥ 3). […] Comparison of the transition temperatures (TM) of WT and the variants Y479F, S113L and P50H in buffer with of 0.25 mM cardiolipin or 1% n-octyl-β-d-glucopyranoside (β-OG) assessed by nanoDSF (n ≥ 3). […]

Substrate in data set [3]: C[N+](C)(C)C[C@H](O)CC(=O)[O-]
Put plainly: Determination of the kinetic parameters kcat and KM. The following applies: other: P50H, L-carnitine varied, absence of CL, 25 °C. The format is biochemical, human. The protocol:
Before activity measurements, the storage buffer of the enzymes was replaced with assay buffer (50 mM KH2PO4, 120 mM KCl, 1 mM EDTA-Na4) using vivaspin turbo 4 tubes (Satorius Stedim biotech GmbH, Göttingen, Germany) at 4 °C. The pH of assay buffer was adjusted with KOH to 7.4. The storage buffer was diluted at least 1:500 in assay buffer. In addition, before each experimental set up, the protein samples were centrifuged at 16,000× g for 5 min at 4 °C to remove any micro-aggregates. After that, the protein concentration was determined using bicinchoninic acid (BCA) protein assay kit (Thermo Fisher Scientific GmbH, Berlin, Germany). The enzyme activity of recombinant CPT II was performed following Rufer et al. with modifications described elsewhere. […] After pre-conditioning the mixture to 25 °C for 2 min, the reaction was started by adding 15 nM of recombinant enzyme. The reverse reaction of CPT II was detected with the enzyme activity assay. CPT II catalyzed the transfer of fatty acid residue from Pal-CoA to L-carnitine with release of CoA and Pal-carnitine. The released CoA was then detected by the reaction of the free thiol group with DTNB, forming 5-mercapto-(2-nitrobenzoic acid). This compound has a molar extinction coefficient of 13,600 M^−1 cm^−1 at a wavelength of 410 nm, and its formation was followed spectroscopically. […] The slope of the progress curve was used to determine the reaction velocity.
It is assumed that the reaction catalyzed by CPT II represents a ping-pong mechanism or compulsory order ternary-complex mechanism.
The kinetic parameters were determined by evaluating the obtained v/S characteristic according to the Michaelis–Menten Equation (1). The […] kcat was calculated using Equation (2):(1) v=Vmax∗[S]/KM+[S] (2) kcat=Vmax/cenzyme

Data set [4] can be described thus: nanoDSF thermostability of recombinant CPT II enzymes in assay buffer. The format is physicochemical. The following applies: assay buffer; 1 mg/mL protein; nanoDSF. The protocol:
The protein stability was investigated applying nano differential scanning fluorimetry (nanoDSF) using a protein concentration of 1 mg/mL in assay buffer. […] The heating rate has been set to 1 °C per min. A heating ramp from 15 to 95 °C was determined. The nanoDSF data were obtained using a Prometheus NT.48 device. First derivatives were calculated using PR.ThermControl software (NanoTemper Technologies GmbH, Munich, Germany). Experiments were performed at least three times independently as double determination.
On the technique in general: In DSF a fluorescence change marks the thermal transition of the protein.

Broadly, the Km is the substrate concentration at which the rate is half of its maximum. For orientation: kcat means the number of substrate molecules converted per active site and unit of time at saturation. Broadly, the kcat/Km is the turnover number divided by the Michaelis constant.

With `CC(C)(COP(=O)(O)OP(=O)(O)OC[C@H]1O[C@@H](n2cnc3c(N)ncnc32)[C@H](O)[C@@H]1OP(=O)(O)O)[C@@H](O)C(=O)NCCC(=O)NCCSC(=O)CC(=O)O` [malonyl-CoA, Malonyl-CoA], the “Inhibition by malonyl-CoA” value in the data set on CPT II WT is on record as “not inhibited”; with CPT II S113L, “abnormal enzyme inhibition”.

B1: CPT II variant P50H (Homo sapiens; P50H) (protein)
chain: SAGSGPGQYLQRSIVPTMHYQDSLHRLPIPKLEDTIRRYLSAQKPLLNDGQFRKTEQFCKSFENGIGKELHEQLVALDKQNKHTSYISGPWFDMYLSARDSVVLNFNPFMAFNPDPKSEYNDQLTRATNMTVSAIRFLKTLRAGLLEPEVFHLNPAKSDTITFKRLIRFVPSSLSWYGAYLVNAYPLDMSQYFRLFNSTRLPKPSRDELFTDDKARHLLVLRKGNFYIFDVLDQDGNIVSPSEIQAHLKYILSDSSPAPEFPLAYLTSENRDIWAELRQKLMSSGNEESLRKVDSAVFCLCLDDFPIKDLVHLSHNMLHGDGTNRWFDKSFNLIIAKDGSTAVHFEHSWGDGVAVLRFFNEVFKDSTQTPAVTPQSQPATTDSTVTVQKLNFELTDALKTGITAAKEKFDATMKTLTIDCVQFQRGGKEFLKKQKLSPDAVAQLAFQMAFLRQYGQTVATYESCSTAAFKHGRTETIRPASVYTKRCSEAFVREPSRHSAGELQQMMVECSKYHGQLTKEAAMGQGFDRHLFALRHLAAAKGIILPELYLDPAYGQINHNVLSTSTLSSPAVNLGGFAPVVSDGFGVGYAVHDNWIGCNVSSYPGRNAREFLQCVEKALEDMFDALEGKSIKS
notes: made in house; host or cells: Escherichia coli BL21Gold DE
Consider B1, for which the “Time to complete loss of activity” value in data set [1] is not above 25 min. For the same molecule, in data set [2], the “Onset of aggregation (Tagg)” value stood at 32 °C. In data set [3], the Km is on record as 12.8 ± 2.7 mM, the kcat was found to be 138 ± 4.9 s⁻¹ and the kcat/Km was 10800 ± 2600 M⁻¹ s⁻¹. The “TM in Buffer” value in data set [4] was found to be 26.2 ± 0.3 °C.
